Test results from patent publication US20210179715A1 (published 2021).
Numbering of substitutions follows the chain as printed. In names and notes the source's numbering stands. Read-outs that look alike come from different tables or passages of the source. Blank lines part the entries; values can stand above or below the binder they belong to.

Experiments:
[1] = target: QNV; assay: BIAcore
[2] = target: QNT; assay: BIAcore
[3] = target: SNT; assay: BIAcore
[4] = target: GNT; assay: BIAcore
[5] = target: ANT; assay: BIAcore
[6] = target: SNA; assay: BIAcore
[7] = target: NNV; assay: BIAcore
[8] = target: SNV; assay: BIAcore
[9] = target: Parental NNT; assay: BIAcore
[10] = target: NNA; assay: BIAcore
[11] = target: Chimeric 1G4; assay: Biacore
[12] = target: hu.20A12.IA.SNA.H12(V3-23).L2(K1-5); assay: BIAcore; 37 C
[13] = target: hu.20A12.IA.QNV.H12(V3-23).L2(K1-5); assay: BIAcore; 37 C
[14] = target: hu.20A12.IA.GNT.H12(V3-23).L2(K1-5); assay: BIAcore; 37 C
[15] = target: 4H7; assay: BIAcore; 37 C
[16] = target: SA; assay: BIAcore
[17] = target: IS; assay: BIAcore
[18] = target: SS; assay: BIAcore
[19] = target: T1, human Ly6G6D polypeptide (UniProt O95868 20-104); assay: BIAcore
T1 chain: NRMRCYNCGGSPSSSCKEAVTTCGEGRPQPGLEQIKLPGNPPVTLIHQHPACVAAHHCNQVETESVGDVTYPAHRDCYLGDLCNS

[20] = target: T2, human LY6G6D-Fc (UniProt O95868 20-104); assay: BIAcore; 37 C
T2 chain: T1 chain

[21] = target: T2, human LY6G6D-Fc; assay: BIAcore; 37 C

Kd [1]: 0.22 nM
Kd [2]: 0.28 nM
Kd [3]: 0.25 nM
Kd [4]: 0.34 nM
Kd [5]: 0.26 nM
Kd [6]: 0.27 nM
Kd [7]: 0.22 nM
Kd [8]: 0.23 nM
Kd [9]: 0.43 nM
Kd [10]: 0.26 nM
Kd [11]: 2.7 nM
B1: LY6G6D (other)
chain: T1 chain

Kd [12]: 0.105 nM
Kd [13]: 0.0335 nM
Kd [14]: 0.122 nM
Kd [15]: 0.36 nM
B2: Ly6G6D (Fc fusion)
chain: T1 chain

Kd [16]: 2.74 nM
Kd [17]: 1.26 nM
Kd [18]: 2.7 nM
B3: Ly6G6D (other)
chain: T1 chain

Kd [19]: 1.3 nM
B4: hu6E10.K3-20.V3-53 (L1H1) (antibody, V domains shown)
VH: EQQLVESGGGLIQPGGSLRLSCAVSGLSLSTNSINWVRQAPGKGLEWIGYIYHGDGIADYASWAKGRFTISKDSSKNTVYLQMNSLRAEDTAVYFCASGAGYSLFTLWGPGTLVTVSS
VL: EAVLTQSPGTLSLSPGERATLSCQSSESVWHNNWLAWFQQKPGQRPRLLIYGASTLASGVPDRFSGSGSGTDFTLTISRLEPEDFAVYYCAGGYSSSDAHVFGGGTKVEIK

Kd [19]: 1.3 nM
B5: hu6E10.K3-20.V3-48 (antibody, V domains shown)
VH: B4 VH with I12V, S75A, T78S
VL: B4 VL

Kd [19]: 1.41 nM
B6: hu6E10.K4-1.V3-48 (antibody, V domains shown)
VH: B4 VH with I12V, S75A, T78S
VL: DAVLTQSPDSLAVSLGERATINCQSSESVWHNNWLAWFQQKPGQRPKLLIYGASTLASGVPDRFSGSGSGTDFTLTISSLQAEDVAVYYCAGGYSSSDAHVFGGGTKVEIK

Kd [19]: 1.66 nM
B7: hu6E10.K4-1.V3-53 (antibody, V domains shown)
VH: B4 VH
VL: B6 VL

Kd [19]: 3.34 nM
B8: hu6E10.K1-5.V4-4 (antibody, V domains shown)
VH: EQQLQESGPGLVKPPGTLSLTCAVSGLSLSTNSINWVRQPPGKGLEWIGYIYHGDGIADYASWAKGRFTISKDSSKTQVSLKLSSVTAADTAVYFCASGAGYSLFTLWGPGTLVTVSS
VL: DAQLTQSPSTLSASVGDRVTITCQSSESVWHNNWLAWFQQKPGKRPKLLIYGASTLASGVPSRFSGSGSGTEFTLTISSLQPDDFATYYCAGGYSSSDAHVFGGGTKVEIK

Kd [19]: 1.63 nM
B9: hu6E10.K1-5.V3-53 (L1H1) (antibody, V domains shown)
VH: B4 VH
VL: B8 VL

Kd [19]: 1.03 nM
B10: hu6E10.K1-5.V3-48 (antibody, V domains shown)
VH: B4 VH with I12V, S75A, T78S
VL: B8 VL

Kd [19]: 3.11 nM
B11: hu6E10.K3-20.V4-4 (antibody, V domains shown)
VH: B8 VH
VL: B4 VL

Kd [19]: 3.6 nM
B12: hu6E10.K4-1.V4-4 (antibody, V domains shown)
VH: B8 VH
VL: B6 VL

Kd [20]: 1.45 nM
B13: 1G4 Fab (Fab, V domains shown)
VH: EVQLVQSGAEVKKPGASVKVSCKASGYTFTTYVMHWVRQAPGQGLEWMGYINPYNDGTKYNEKFKGRVTMTRDTSISTAYMELSRLRSDDTAVYYCGRRNFDYWGQGTLVTVSS
VL: DIVMTQSPDSLAVSLGERATINCKSSQSLLLSGNQENYLAWHQQKPGQPPKTLITWASTRISGVPDRFSGSGSGTDFTLTISSLQAEDVAVYYCQQSYSAPYTFGGGTKVEIKR

Kd [21]: 0.704 nM
B14: rb20A12.IA (C35I-C50A) chimeric Fab (Fab, V domains shown)
VH: QQQLEESGGDLVKPGASLTLTCTASGFDFVNNAMIWVRQAPGKGLEWIAALSFADNTAYYATWASGRFTISKISSTTVTLRMTSLTGADTATYFCMRGDLWGPGTLVTVSS
VL: DIVMTQTPSSVSAAVGGTVTINCQASESITRYLNWYQQKPGQPPKLLIYDASKLPSGVPSRFKGSGSGTQFTLTTSDLECADAATYYCQSTSFRGRSYNNTFGGGTEVVVK
